Laboratory results published in paper PMC6356061.

Key:
[1] = target: NMDA receptor GluN1 subunit (mouse (endogenous in primary cortical neurons)) (UniProt P35438); experiment: co-IP; extracts of neurons exposed 10 min to 14.4 nM biotinylated Fib-Tau; immunoprecipitation with anti-α3-NKA, anti-GluA2 or anti-GluN1 and protein G magnetic beads, 4°C; Fib-Tau detected on slot blot with streptavidin-HRP; controls with pre-immune goat or rabbit IgG
[2] = target: NMDA receptor GluN1 subunit (mouse (endogenous in primary cortical neurons)) (UniProt P35438)

## Biotin-labelled fibrillar Tau-1N3R (Fib-Tau-1N3R) (from UniProt P10636-4 1-381) (natural protein)
[1]
  fold enrichment in Tau band intensity over pre-immune IgG control: 1.8 fold
[2]
  change in the amount (fluorescence intensity) of synaptic GluN1-NMDA after exposure of neurons to Fib-Tau (0.36 nM, 60 min); no change: -3.2%
